Columns and labels:
[1] = biological target: T1, hOrai1-mOrai1 ECL2 chimeric protein (human/mouse chimera, UniProt Q96D31 1-301); experiment: FACS, 293EBNA; design: concentration or dose not given beside the values
T1 construct: human Orai1 with mouse ECL2; also called Ch
Excerpt: (§1) FIG. 16A-D illustrates the results of FACS analysis showing binding to the indicated mOrai1-hOrai1 ECL2 chimeric mutants expressed on the surface of HEK-293-EBNA cells. Transfected cells were stained first with recombinant monoclonal antibodies then counter-stained with a secondary phycoerythrin-labeled goat (“Gt”) anti-human (“Hu”) IgG F(ab′)₂ antibody fragment and visualized using FACS. In FIG. 16B and FIG. 16D, The values of Relative Fluorescence Intensity as Percent of Control (RFI-POC) are calculated from the relative fluorescence intensity geometric mean (Geo Mean). The geometric mean is an average calculated by multiplying a series of numbers and taking the nth root where n is the number of numbers in the series. It is a statistical average of a set of transformed numbers often used to represent a central tendency in a highly variable data set that minimizes the effects of extreme values.
(§2) Table 11A and Table 11B feature a schematic representation of the POC data from FIG. 16B and FIG. 16D, respectively, where the binding results are recorded as (+++) denoting binding POC from 40% to 100%, (++) for POC of 5% to less than 40%, (+) for POC from 1% to less than 5% and (−) as lack of binding with POC less than 1%.

[2] = biological target: T2, mOrai1-hOrai1 ECL2 (…) protein (human/mouse chimera, UniProt Q8BWG9 1-304 (mouse entry)); experiment: FACS, 293EBNA; design: concentration or dose not given beside the values
T2 construct: also called Ch
Excerpt: as §1, §2
T2 sequence (Q8BWG9 other isoform, or with tags, fused parts or gaps): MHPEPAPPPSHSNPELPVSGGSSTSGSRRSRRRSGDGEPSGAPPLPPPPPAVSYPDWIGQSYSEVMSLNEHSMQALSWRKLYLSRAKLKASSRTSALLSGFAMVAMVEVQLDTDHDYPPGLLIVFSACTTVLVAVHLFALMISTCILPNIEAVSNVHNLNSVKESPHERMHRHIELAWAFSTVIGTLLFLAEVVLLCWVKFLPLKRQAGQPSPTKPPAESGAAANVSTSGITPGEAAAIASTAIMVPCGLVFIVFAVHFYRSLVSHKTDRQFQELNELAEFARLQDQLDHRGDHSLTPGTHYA

[3] = biological target: T3, mOrai1-hOrai1 ECL2 (SPTKPPAE) protein (human/mouse chimera, UniProt Q8BWG9 1-304 (mouse entry)); experiment: FACS, 293EBNA; design: concentration or dose not given beside the values
T3 construct: also called Ch
Excerpt: as §1, §2

[4] = biological target: T4, mOrai1-hOrai1 ECL2 (KPPAE) protein (human/mouse chimera, UniProt Q8BWG9 1-304 (mouse entry)); experiment: FACS, 293EBNA; design: concentration or dose not given beside the values
T4 construct: also called Ch
Excerpt: as §1, §2

[5] = biological target: T5, mOrai1-hOrai1 ECL2 (…) protein (human/mouse chimera, UniProt Q8BWG9 1-304 (mouse entry)); experiment: FACS, 293EBNA; design: concentration or dose not given beside the values; remark: listed apart in the source
T5 construct: also called Ch
Excerpt: as §1, §2
T5 sequence (Q8BWG9 other isoform, or with tags, fused parts or gaps): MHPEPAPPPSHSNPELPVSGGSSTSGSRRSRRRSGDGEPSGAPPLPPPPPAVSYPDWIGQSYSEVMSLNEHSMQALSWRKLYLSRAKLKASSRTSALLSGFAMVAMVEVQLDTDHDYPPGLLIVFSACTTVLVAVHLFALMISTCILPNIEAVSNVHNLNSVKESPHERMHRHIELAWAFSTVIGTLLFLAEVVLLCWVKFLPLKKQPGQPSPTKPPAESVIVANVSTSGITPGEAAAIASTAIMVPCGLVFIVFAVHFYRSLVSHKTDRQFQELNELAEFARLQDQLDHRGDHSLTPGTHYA

[6] = biological target: T6, mOrai1-hOrai1 ECL2 (…) protein (human/mouse chimera, UniProt Q8BWG9 1-304 (mouse entry)); experiment: FACS, 293EBNA; design: concentration or dose not given beside the values; remark: listed apart in the source
T6 construct: also called Ch
Excerpt: as §1, §2
T6 sequence (Q8BWG9 other isoform, or with tags, fused parts or gaps): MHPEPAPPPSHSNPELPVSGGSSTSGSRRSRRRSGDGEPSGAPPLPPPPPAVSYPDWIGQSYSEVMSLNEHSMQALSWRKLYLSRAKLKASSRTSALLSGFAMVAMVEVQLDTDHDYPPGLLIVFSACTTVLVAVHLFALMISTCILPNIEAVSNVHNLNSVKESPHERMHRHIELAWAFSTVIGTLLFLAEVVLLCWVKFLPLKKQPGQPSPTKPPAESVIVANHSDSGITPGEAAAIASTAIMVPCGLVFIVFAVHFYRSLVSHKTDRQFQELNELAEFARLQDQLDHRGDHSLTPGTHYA

[7] = biological target: T7, mOrai1-hOrai1 ECL2 (…) protein (human/mouse chimera, UniProt Q8BWG9 1-304 (mouse entry)); experiment: FACS, 293EBNA; design: concentration or dose not given beside the values; remark: listed apart in the source
T7 construct: also called Ch
Excerpt: as §1, §2
T7 sequence (Q8BWG9 other isoform, or with tags, fused parts or gaps): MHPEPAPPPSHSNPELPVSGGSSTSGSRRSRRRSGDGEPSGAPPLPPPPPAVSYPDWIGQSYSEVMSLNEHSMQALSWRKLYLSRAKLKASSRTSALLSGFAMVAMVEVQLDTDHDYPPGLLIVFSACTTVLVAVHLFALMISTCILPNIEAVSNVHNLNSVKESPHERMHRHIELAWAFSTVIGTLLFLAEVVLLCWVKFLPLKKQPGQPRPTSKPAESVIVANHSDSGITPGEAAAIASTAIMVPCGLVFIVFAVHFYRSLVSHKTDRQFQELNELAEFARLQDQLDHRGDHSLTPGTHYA

[8] = biological target: T8, mOrai1-hOrai1 ECL2 (AESVIV) protein (human/mouse chimera, UniProt Q8BWG9 1-304 (mouse entry)); experiment: FACS, 293EBNA; design: concentration or dose not given beside the values
T8 construct: also called Ch
Excerpt: as §1, §2

[9] = biological target: T9, hOrai1-mOrai1 ECL2 (…) protein (human/mouse chimera, UniProt Q96D31 1-301); experiment: FACS, 293EBNA, RFI-POC grade; design: concentration or dose not given beside the values
T9 construct: also called Ch

[10] = biological target: T10, hOrai1-mOrai1 ECL2 (SKPPA) protein (human/mouse chimera, UniProt Q96D31 1-301); experiment: FACS, 293EBNA, RFI-POC grade; design: concentration or dose not given beside the values
T10 construct: also called Ch

[11] = biological target: T11, mOrai1-hOrai1 ECL2 chimeric protein (human/mouse chimera, UniProt Q8BWG9 1-304 (mouse entry)); experiment: FACS, 293EBNA, RFI-POC grade; design: concentration or dose not given beside the values
T11 construct: mouse Orai1 with human ECL2; also called Ch
Excerpt: as §1, §2

[12] = biological target: T12, mOrai1-hOrai1 ECL2 (VIV) protein (human/mouse chimera, UniProt Q8BWG9 1-304 (mouse entry)); experiment: FACS, 293EBNA, RFI-POC grade; design: concentration or dose not given beside the values
T12 construct: also called Ch
Excerpt: as §1, §2

[13] = biological target: T13, mOrai1-hOrai1 ECL2 (HSD) protein (human/mouse chimera, UniProt Q8BWG9 1-304 (mouse entry)); experiment: FACS, 293EBNA, RFI-POC grade; design: concentration or dose not given beside the values
T13 construct: also called Ch
Excerpt: as §1, §2

[14] = biological target: T1, hOrai1-mOrai1 ECL2 chimeric protein; experiment: FACS, 293EBNA transfectants
Excerpt: FIG. 15A-B illustrates the results of FACS analysis showing binding to human Orai1 extracellular loop 2-mouse Orai1 mutant expressed on the surface of HEK-293-EBNA cells. HEK-293-EBNA cells were transiently transfected with mouse Orai1 mutant where human Orai1 extracellular loop 2 replaced the mouse Orai1 extracellular loop 2 and human Orai1 mutant where mouse Orai1 extracellular loop 2 replaced human extracellular loop 2. Transfected cells were stained first with recombinant monoclonal antibodies then counter-stained with a secondary phycoerythrin-labeled goat (“Gt”) anti-human (“Hu”) IgG F(ab′)₂ antibody fragment and visualized using FACS.
FACS binding analysis. Transfected 293EBNA cells transiently expressed hOrai1-mOrai1 ECL2 or mOrai1-hOrai1 ECL2 chimera. The transfected cells were harvested at 48 hours post-transfection. Cells transfected with pcDNA3.1 were used as negative controls. Cells were washed once with ice-cold 1×PBS, resuspended in ice-cold FACS buffer (1×D-PBS+2% goat serum), and 2×10⁵ cells in 100 μL were stained per antibody combination. All antibody incubation steps were performed on ice for 1 hour. […] Next, the unlabelled antibody was detected using goat F(ab′)₂ anti-mouse or anti-human IgG-phycoerythrin (IgG-PE), followed by a wash with 200 μL of ice-cold FACS buffer before flow cytometry analysis. Unstained cells and cells stained with detecting antibodies were used as negative controls. The values of relative level of fluorescence were calculated using FCS Express (De Novo Software) and mean values were calculated using log-transformed data (geometric mean). The results of the FACS analysis are shown in FIG. 15A-B, which supports the conclusion that the hOrai1 ECL2 domain is the region of hOrai1 where antibodies of the present invention bind.

human Orai1 = biological target: T14, human Orai1 (human, UniProt Q96D31 1-301); experiment: FACS Kd, AM1-CHO/hOrai1/hSTIM1-YFP cells
T14 construct: on AM1-CHO/hOrai1/hSTIM1-YFP, AM1/hOrai1, HEK-293 transfectants, endogenous on Jurkat and blood cells; in Westerns from cell lysates; also called hOrai1; CRACM1
Method in brief: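 Kd derived by n-curve analysis of free-antigen signal versus titrant concentration, using two cell concentrations. Free antigen taken as inverse GeoMean of live-gated cells after Cy5 anti-human Fc detection (5 μg/mL, 1 h, ice, dark). Washes used ice-cold D-PBS with 2% FBS.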

T1 sequence (Q96D31 other isoform, or with tags, fused parts or gaps mutant): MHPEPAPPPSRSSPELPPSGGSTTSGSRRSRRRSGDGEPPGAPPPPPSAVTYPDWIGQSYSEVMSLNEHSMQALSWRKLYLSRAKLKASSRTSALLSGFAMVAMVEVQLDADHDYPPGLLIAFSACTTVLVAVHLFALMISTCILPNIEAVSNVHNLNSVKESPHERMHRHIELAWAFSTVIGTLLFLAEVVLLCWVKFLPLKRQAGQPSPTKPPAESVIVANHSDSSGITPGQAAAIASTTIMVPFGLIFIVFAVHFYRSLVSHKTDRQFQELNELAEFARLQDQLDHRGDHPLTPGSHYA
T4 sequence (Q8BWG9 other isoform, or with tags, fused parts or gaps): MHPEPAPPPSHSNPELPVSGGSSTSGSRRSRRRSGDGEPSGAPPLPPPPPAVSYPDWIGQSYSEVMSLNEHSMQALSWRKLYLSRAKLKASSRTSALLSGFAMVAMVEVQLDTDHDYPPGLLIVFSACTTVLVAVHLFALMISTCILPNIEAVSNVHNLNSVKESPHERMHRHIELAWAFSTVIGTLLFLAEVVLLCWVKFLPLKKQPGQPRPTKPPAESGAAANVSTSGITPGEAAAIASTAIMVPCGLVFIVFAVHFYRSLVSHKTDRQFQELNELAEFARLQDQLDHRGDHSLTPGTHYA
T10 sequence (Q96D31 other isoform, or with tags, fused parts or gaps): as the sequence (Q96D31 other isoform, or with tags, fused parts or gaps mutant) above, with K213S, P214K, A216P, E217A counted along it
T12 sequence (Q8BWG9 other isoform, or with tags, fused parts or gaps): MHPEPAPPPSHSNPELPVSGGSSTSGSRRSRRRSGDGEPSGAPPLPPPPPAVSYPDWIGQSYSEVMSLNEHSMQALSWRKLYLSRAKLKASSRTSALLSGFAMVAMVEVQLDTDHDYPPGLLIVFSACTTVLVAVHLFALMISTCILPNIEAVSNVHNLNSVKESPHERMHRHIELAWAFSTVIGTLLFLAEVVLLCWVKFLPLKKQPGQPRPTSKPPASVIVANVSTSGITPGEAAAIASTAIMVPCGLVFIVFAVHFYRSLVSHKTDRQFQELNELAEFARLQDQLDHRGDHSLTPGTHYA
T8 sequence (Q8BWG9 other isoform, or with tags, fused parts or gaps): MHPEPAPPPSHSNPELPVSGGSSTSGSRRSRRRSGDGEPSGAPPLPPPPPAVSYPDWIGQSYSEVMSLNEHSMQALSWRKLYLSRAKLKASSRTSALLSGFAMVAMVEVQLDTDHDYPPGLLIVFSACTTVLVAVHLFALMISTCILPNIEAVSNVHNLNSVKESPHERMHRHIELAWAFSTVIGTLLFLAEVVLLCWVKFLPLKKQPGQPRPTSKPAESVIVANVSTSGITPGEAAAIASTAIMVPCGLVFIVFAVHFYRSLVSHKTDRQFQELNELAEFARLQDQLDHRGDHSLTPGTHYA
T9 sequence (Q96D31 other isoform, or with tags, fused parts or gaps): as the sequence (Q96D31 other isoform, or with tags, fused parts or gaps mutant) above, with R204K, A206P, S210R, K213S, P214K, A216P, E217A, V219G, I220A, V221A counted along it
T3 sequence (Q8BWG9 other isoform, or with tags, fused parts or gaps): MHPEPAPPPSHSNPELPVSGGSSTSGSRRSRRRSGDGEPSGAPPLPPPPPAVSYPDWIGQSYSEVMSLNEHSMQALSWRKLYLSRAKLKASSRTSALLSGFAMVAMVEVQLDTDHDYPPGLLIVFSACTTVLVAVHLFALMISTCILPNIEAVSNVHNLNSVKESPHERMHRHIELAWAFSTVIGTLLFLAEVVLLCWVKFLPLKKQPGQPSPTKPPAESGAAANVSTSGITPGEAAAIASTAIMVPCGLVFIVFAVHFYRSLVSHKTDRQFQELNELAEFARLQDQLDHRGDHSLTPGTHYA
T14 sequence (Q96D31 whole entry): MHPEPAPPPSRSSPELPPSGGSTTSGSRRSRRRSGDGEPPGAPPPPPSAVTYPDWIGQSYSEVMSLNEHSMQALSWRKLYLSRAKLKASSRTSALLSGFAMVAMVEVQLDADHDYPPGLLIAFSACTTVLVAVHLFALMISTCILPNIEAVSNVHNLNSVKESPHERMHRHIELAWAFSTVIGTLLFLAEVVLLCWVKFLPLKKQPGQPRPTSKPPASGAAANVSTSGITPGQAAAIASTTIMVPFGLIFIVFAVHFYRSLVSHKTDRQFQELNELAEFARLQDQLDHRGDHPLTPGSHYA
T13 sequence (Q8BWG9 other isoform, or with tags, fused parts or gaps): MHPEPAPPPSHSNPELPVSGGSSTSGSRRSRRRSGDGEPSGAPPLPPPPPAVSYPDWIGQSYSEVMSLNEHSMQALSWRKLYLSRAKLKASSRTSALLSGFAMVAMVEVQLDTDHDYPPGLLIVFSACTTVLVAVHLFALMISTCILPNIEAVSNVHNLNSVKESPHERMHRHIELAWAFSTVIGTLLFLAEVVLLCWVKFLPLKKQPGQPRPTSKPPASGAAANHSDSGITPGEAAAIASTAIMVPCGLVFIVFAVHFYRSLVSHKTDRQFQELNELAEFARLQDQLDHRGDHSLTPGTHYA
T11 sequence (Q8BWG9 other isoform, or with tags, fused parts or gaps mutant): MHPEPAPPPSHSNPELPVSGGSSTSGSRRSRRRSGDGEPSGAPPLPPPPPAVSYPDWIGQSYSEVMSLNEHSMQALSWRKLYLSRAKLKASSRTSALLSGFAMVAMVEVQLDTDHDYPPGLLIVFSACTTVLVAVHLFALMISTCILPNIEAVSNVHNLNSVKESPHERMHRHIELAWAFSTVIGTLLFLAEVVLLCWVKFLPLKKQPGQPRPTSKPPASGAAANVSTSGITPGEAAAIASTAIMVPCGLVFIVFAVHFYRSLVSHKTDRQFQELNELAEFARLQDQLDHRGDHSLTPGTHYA

B1: mAb 5F2.1 (antibody, human IgG2, lambda, V domains shown)
VH: QVQLVQSGAEVKKPGASVKVSCKASGYTFTDYYMNWVRQAPGQGLEWMGWINPNSGGTHYAQKFQGRVTMTRDTSISTAYMELSRLRSDDTAVYYCAREYGGYSDWFDPWGQGTLVTVSS
VL: QSVLTQPPSVSGAPGQRVTISCTGSRSNIGAGYDVHWYQQLPRTAPKLLIYDNSNRPSGVPDRFSGSKSGSSASLAITGLQAEDEADYYCQSYDNSLSDSVLIGGGTKLTVLG
notes: fully human IgG2 lambda, Campaign 2
no binding (tested: 1 µg): binding result [14]
0.767 nM: Kd (human Orai1)
< 1%: POC (percent of control, FACS Geo Mean relative to binding to Ch. 1) [1] | POC (percent of control, FACS Geo Mean relative to binding to Ch. 1) [2] | POC (percent of control, FACS Geo Mean relative to binding to Ch. 1) [3] | POC (percent of control, FACS Geo Mean relative to binding to Ch. 1) [4] | POC (percent of control, FACS Geo Mean relative to binding to Ch. 1) [5] | POC (percent of control, FACS Geo Mean relative to binding to Ch. 1) [6] | POC (percent of control, FACS Geo Mean relative to binding to Ch. 1) [7] | POC (percent of control, FACS Geo Mean relative to binding to Ch. 1) [8]
40 to 100%: percent of control (POC) of FACS Geo Mean [9] | percent of control (POC) of FACS Geo Mean [10] | POC (percent of control, FACS Geo Mean relative to binding to Ch. 1) [11] | POC (percent of control, FACS Geo Mean relative to binding to Ch. 1) [12] | POC (percent of control, FACS Geo Mean relative to binding to Ch. 1) [13]

— patent US20120231006A1 (Amgen, published 2012)
